Assay results taken from article PMC7954794 (2021).

B1: S. cerevisiae Abp1 (full length; SH3 domain 535-592 mutated) / Hua2 (parent complex)
chain 1: MALEPIDYTTHSREIDAEYLKIVRGSDPDTTWLIISPNAKKEYEPESTGSSFHDFLQLFDETKVQYGLARVSPPGSDVEKIIIIGWCPDSAPLKTRASFAANFAAVANNLFKGYHVQVTARDEDDLDENELLMKISNAAGARYSIQTSSKQQGKASTPPVKKSFTPSKSPAPVSKKEPVKTPSPAPAAKISSRVNDNNDDDDWNEPELKERDFDQAPLKPNQSSYKPIGKIDLQKVIAEEKAKEDPRLVQKPTAAGSKIDPSSDIANLKNESKLKRDSEFNSFLGTTKPPSMTESSLKNDDDKVIKGFRNEKSPAQLWAERKAKQNSGNAETKAEAPKPEVPEDEPEGEPDVKDLKSKFEGLAASEKEEEEMENKFAPPPKKSEPTIISPKPFSKPQEPVKAEEAEQPKTDYKKIGNPLPGMHIEADNEEEPEENDDDWDDDEDEAAQPPLPSRNVASGAPVQKEEPEQEEIAPSLPSRNSIPAPKQEEAPEQAPEEEIEEEAEEAAPQLPSRSSAAPPPPPRRATPEKKPKENPWATAEYDYDAAEDNELTFVENDKIINIEFVDDDWWLGELEKDGSKGLFPSNYVSLGN
chain 2: MQQTKFGKMYLDHDSVVEYSEDEIVEADRITLGYKKRLSMIENQMRHLLEDFSLDVQQIEPILADLQKYYDAFLQLLQKRNKSLQCKRSTHQPVPSPMNSQTSTNAKVNLSGKLMKFQLNSVQKFDEENILRILQNKIEFEHYFQIDKGKKQKVLLLAVYQCLNGPTRLHKVLNIEGIIHNNSIRTILGKQVSSSKWTVFLYDVKLVLLAHRQDVPNLETSKMIVRYGDLFPCALYFKDHTAY

Variants of: B1
Assay: DHFR protein-fragment complementation in yeast (Abp1-DHFR F[1,2] x partner-DHFR F[3]), deep mutational scanning, second methotrexate selection vs reference; S. cerevisiae, DHFR-PCA selection in liquid with methotrexate at 30 C, two 72 h selections (the score uses the second); reference = the pre-selection culture

| Variant | screen value |
| --- | --- |
| chain 1 D548L | -0.0418 DMS score: mean over two replicates of log2(f_test/f_ref + 0.5)/ln 2, minus the synonymous-codon median (not a log2 … |
| chain 1 E550Q | -2.17 DMS score: mean over two replicates of log2(f_test/f_ref + 0.5)/ln 2, minus the synonymous-codon median (not a log2 … |
| chain 1 S579V | -0.988 DMS score: mean over two replicates of log2(f_test/f_ref + 0.5)/ln 2, minus the synonymous-codon median (not a log2 … |
| chain 1 N549K | -0.863 DMS score: mean over two replicates of log2(f_test/f_ref + 0.5)/ln 2, minus the synonymous-codon median (not a log2 … |
| chain 1 W536F | -0.302 DMS score: mean over two replicates of log2(f_test/f_ref + 0.5)/ln 2, minus the synonymous-codon median (not a log2 … |
| chain 1 E555S | 0.724 DMS score: mean over two replicates of log2(f_test/f_ref + 0.5)/ln 2, minus the synonymous-codon median (not a log2 … |
| chain 1 D568T | -2.96 DMS score: mean over two replicates of log2(f_test/f_ref + 0.5)/ln 2, minus the synonymous-codon median (not a log2 … |
| chain 1 V565C | 0.907 DMS score: mean over two replicates of log2(f_test/f_ref + 0.5)/ln 2, minus the synonymous-codon median (not a log2 … |
| chain 1 T538F | 0.0744 DMS score: mean over two replicates of log2(f_test/f_ref + 0.5)/ln 2, minus the synonymous-codon median (not a log2 … |
| chain 1 T538E | -0.61 DMS score: mean over two replicates of log2(f_test/f_ref + 0.5)/ln 2, minus the synonymous-codon median (not a log2 … |
| chain 1 E563C | -0.992 DMS score: mean over two replicates of log2(f_test/f_ref + 0.5)/ln 2, minus the synonymous-codon median (not a log2 … |
| chain 1 L571E | 1.04 DMS score: mean over two replicates of log2(f_test/f_ref + 0.5)/ln 2, minus the synonymous-codon median (not a log2 … |
| chain 1 L571F | 0.614 DMS score: mean over two replicates of log2(f_test/f_ref + 0.5)/ln 2, minus the synonymous-codon median (not a log2 … |
| chain 1 Y587A | -2.26 DMS score: mean over two replicates of log2(f_test/f_ref + 0.5)/ln 2, minus the synonymous-codon median (not a log2 … |
| chain 1 Y587F | -0.234 DMS score: mean over two replicates of log2(f_test/f_ref + 0.5)/ln 2, minus the synonymous-codon median (not a log2 … |

More lines, now with the values ahead:

| screen value | Variant |
| --- | --- |
| 0.59 DMS score: mean over two replicates of log2(f_test/f_ref + 0.5)/ln 2, minus the synonymous-codon median (not a log2 … | chain 1 L574N |
| 1.32 DMS score: mean over two replicates of log2(f_test/f_ref + 0.5)/ln 2, minus the synonymous-codon median (not a log2 … | chain 1 N549V |
| 0.223 DMS score: mean over two replicates of log2(f_test/f_ref + 0.5)/ln 2, minus the synonymous-codon median (not a log2 … | chain 1 E575A |
| -0.062 DMS score: mean over two replicates of log2(f_test/f_ref + 0.5)/ln 2, minus the synonymous-codon median (not a log2 … | chain 1 W536T |
| -0.564 DMS score: mean over two replicates of log2(f_test/f_ref + 0.5)/ln 2, minus the synonymous-codon median (not a log2 … | chain 1 W536S |
| -2.54 DMS score: mean over two replicates of log2(f_test/f_ref + 0.5)/ln 2, minus the synonymous-codon median (not a log2 … | chain 1 Y541Q |
| -1 DMS score: mean over two replicates of log2(f_test/f_ref + 0.5)/ln 2, minus the synonymous-codon median (not a log2 … | chain 1 E555D |
| -0.256 DMS score: mean over two replicates of log2(f_test/f_ref + 0.5)/ln 2, minus the synonymous-codon median (not a log2 … | chain 1 E555G |
| -0.851 DMS score: mean over two replicates of log2(f_test/f_ref + 0.5)/ln 2, minus the synonymous-codon median (not a log2 … | chain 1 A546K |
| -0.58 DMS score: mean over two replicates of log2(f_test/f_ref + 0.5)/ln 2, minus the synonymous-codon median (not a log2 … | chain 1 K576N |
| -0.288 DMS score: mean over two replicates of log2(f_test/f_ref + 0.5)/ln 2, minus the synonymous-codon median (not a log2 … | chain 1 K576S |
| -2.34 DMS score: mean over two replicates of log2(f_test/f_ref + 0.5)/ln 2, minus the synonymous-codon median (not a log2 … | chain 1 D566K |
| 0.88 DMS score: mean over two replicates of log2(f_test/f_ref + 0.5)/ln 2, minus the synonymous-codon median (not a log2 … | chain 1 F553I |
| 0.224 DMS score: mean over two replicates of log2(f_test/f_ref + 0.5)/ln 2, minus the synonymous-codon median (not a log2 … | chain 1 A545K |
| -0.419 DMS score: mean over two replicates of log2(f_test/f_ref + 0.5)/ln 2, minus the synonymous-codon median (not a log2 … | chain 1 I560Q |
| -0.508 DMS score: mean over two replicates of log2(f_test/f_ref + 0.5)/ln 2, minus the synonymous-codon median (not a log2 … | chain 1 K580C |
| -0.211 DMS score: mean over two replicates of log2(f_test/f_ref + 0.5)/ln 2, minus the synonymous-codon median (not a log2 … | chain 1 N561D |
